Data published in patent US20240116985A1 (published 2024).
Starred links: 1 amine or outer side, 2 acyl side, 3 side chain; linkers in the order of their positions; H or OH if unused. Positions of bridges follow the written chain, without caps; N, C: chain ends. Non-standard residues stand in square brackets, D forms with d. Primed or numbered codes have the meaning given here. No end group written: not given here. PyrS2″ = (S)-3-amino-1-((pent-4-en-1-yloxy)carbonyl)pyrrolidine-3-carboxylic acid (stapling residue), C=CCCCOC(=O)N1CC[C@@](N[*:1])(C(=O)[*:2])C1; B5(4) = 2,2-bis(4-pentenyl)glycine = 2-amino-2-(pent-4-en-1-yl)hept-6-enoic acid (stitching residue), C=CCCCC(CCCC=C)(N[*:1])C(=O)[*:2]; B5(3) = 2,2-bis(4-pentenyl)glycine (stitching residue), C=CCCCC(CCCC=C)(N[*:1])C(=O)[*:2]; Phe(2-Cl) = N[C@@H](Cc1ccccc1Cl)C(=O)O; Ala(cPent) = N[C@@H](CC1CCCC1)C(=O)O; Bta = N[C@@H](Cc1csc2ccccc12)C(=O)O; αAllylPro = C=CC[C@@]1(C(=O)O)CCCN1; tBuAla = CC(C)(C)C[C@H](N)C(=O)O; S8 = C=CCCCCCC[C@](C)(N)C(=O)O; Thr(ol) = C[C@@H](O)[C@H](N)CO; Phe(ol) = N[C@H](CO)Cc1ccccc1

T1: B-cat-Halo (beta-catenin HaloTag NanoBRET construct expressed in HEK293 cells) (UniProt P35222 2-781)
T1 sequence (looked up): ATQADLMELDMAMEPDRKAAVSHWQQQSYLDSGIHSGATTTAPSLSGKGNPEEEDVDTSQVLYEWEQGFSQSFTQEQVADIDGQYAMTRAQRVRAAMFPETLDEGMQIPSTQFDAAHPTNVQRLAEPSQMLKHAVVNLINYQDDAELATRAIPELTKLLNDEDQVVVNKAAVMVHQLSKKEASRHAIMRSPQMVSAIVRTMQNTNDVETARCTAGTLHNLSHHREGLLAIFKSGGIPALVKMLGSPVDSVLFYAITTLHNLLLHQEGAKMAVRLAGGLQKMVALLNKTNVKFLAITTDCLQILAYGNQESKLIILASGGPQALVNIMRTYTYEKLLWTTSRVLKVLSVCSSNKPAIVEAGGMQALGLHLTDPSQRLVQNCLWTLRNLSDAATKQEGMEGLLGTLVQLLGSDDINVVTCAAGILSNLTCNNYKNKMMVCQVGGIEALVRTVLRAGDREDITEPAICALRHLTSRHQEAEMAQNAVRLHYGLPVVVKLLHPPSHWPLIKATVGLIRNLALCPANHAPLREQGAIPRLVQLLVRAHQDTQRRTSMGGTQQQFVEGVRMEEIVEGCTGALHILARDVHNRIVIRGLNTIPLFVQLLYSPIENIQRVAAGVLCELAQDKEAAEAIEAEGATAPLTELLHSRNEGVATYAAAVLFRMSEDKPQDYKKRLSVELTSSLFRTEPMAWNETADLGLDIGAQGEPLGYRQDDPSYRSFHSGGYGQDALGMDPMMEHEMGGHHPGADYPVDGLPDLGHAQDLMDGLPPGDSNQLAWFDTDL

T2: Bcat-Halo (beta-catenin HaloTag fusion expressed in HEK293 cells) (UniProt P35222 1-781)
T2 sequence (looked up): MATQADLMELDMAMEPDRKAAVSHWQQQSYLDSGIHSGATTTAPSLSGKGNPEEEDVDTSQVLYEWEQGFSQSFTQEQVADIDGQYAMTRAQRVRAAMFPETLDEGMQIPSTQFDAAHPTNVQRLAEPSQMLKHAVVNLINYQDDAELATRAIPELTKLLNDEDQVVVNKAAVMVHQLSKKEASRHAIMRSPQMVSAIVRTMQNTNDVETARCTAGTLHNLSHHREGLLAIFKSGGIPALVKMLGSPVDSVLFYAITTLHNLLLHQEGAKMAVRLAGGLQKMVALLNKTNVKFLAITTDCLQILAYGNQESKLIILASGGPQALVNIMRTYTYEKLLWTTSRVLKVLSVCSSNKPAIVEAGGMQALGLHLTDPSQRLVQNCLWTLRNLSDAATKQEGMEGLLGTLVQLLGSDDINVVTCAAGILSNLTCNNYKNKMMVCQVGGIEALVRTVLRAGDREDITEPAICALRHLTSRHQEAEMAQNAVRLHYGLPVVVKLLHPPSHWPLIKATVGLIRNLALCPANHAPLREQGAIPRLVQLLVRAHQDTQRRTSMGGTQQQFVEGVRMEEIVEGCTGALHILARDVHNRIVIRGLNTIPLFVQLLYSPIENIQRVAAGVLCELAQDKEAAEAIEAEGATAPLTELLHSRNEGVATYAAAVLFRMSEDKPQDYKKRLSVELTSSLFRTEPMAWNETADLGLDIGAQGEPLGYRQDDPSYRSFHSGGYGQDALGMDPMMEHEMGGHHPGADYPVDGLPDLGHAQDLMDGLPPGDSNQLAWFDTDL


Target: T1, B-cat-Halo (beta-catenin HaloTag …)
Assay: cell-based or functional assay

NanoBRET Abs IC50 [µM]	Binder
14.1	Ac-[αAllylPro]D[tBuAla][B5(3)]DDAAFN[PyrS2″][Phe(2-Cl)][Bta][Thr(ol)] (staple 1-4, 4-11) [I-1082]
18.8	Ac-[αAllylPro]D[tBuAla][B5(3)]DDAAFN[PyrS2″][Phe(2-Cl)][Bta][Phe(ol)] (staple 1-4, 4-11) [I-1083]
9.3	Ac-[αAllylPro]D[tBuAla][B5(3)]DDAAFT[S8][Phe(2-Cl)][Bta]Q-NH2 (staple 1-4, 4-11; also: later eluting staple isomer) [I-1087]
10.5	Ac-[αAllylPro]D[tBuAla][B5(4)]DDAAFL[PyrS2″]F[Bta]Q-NH2 (staple 1-4, 4-11) [I-1072]
6.3	Ac-[αAllylPro]D[tBuAla][B5(3)]DEAAFT[S8][Phe(2-Cl)][Bta]Q-NH2 (staple 1-4, 4-11; also: earlier eluting staple isomer) [I-1088]

Second part, the binder before the results:

Binder	NanoBRET Abs IC50 [µM]
Ac-[αAllylPro]D[tBuAla][B5(3)]DDAAFT[S8][Phe(2-Cl)][Bta]T-NH2 (staple 1-4, 4-11) [I-1090]	6.1
Ac-[αAllylPro]D[tBuAla][B5(3)]DEAAFT[S8][Phe(2-Cl)][Bta]Q-NH2 (staple 1-4, 4-11; also: later eluting staple isomer) [I-1089]	8.9
Ac-[αAllylPro]D[tBuAla][B5(3)]DEAAFT[S8][Phe(2-Cl)][Bta]T-NH2 (staple 1-4, 4-11) [I-1091]	11.4
Ac-[αAllylPro]D[tBuAla][B5(3)]DDAAFT[S8][Phe(2-Cl)][Bta]Q-NH2 (staple 1-4, 4-11; also: earlier eluting staple isomer) [I-1086]	10.1
Ac-[αAllylPro]D[tBuAla][B5(4)]DDAAFN[PyrS2″][Phe(2-Cl)][Bta]Q-NHEt (staple 1-4, 4-11) [I-1079]	19.7

Target: T2, Bcat-Halo (beta-catenin HaloTag fusion …)
Assay: cell-based or functional assay

NanoBRET Abs IC50 [µM]	Binder
33.6	[αAllylPro]D[tBuAla][B5(4)]DDAAFS[PyrS2″]F[Bta]S-NH2 (staple 1-4, 4-11) [I-1357]
> 20	[αAllylPro]D[tBuAla][B5(4)]DDAAFS[PyrS2″]F[Bta]S-NH2 (staple 1-4, 4-11; not fully specified; printed as PL3-Asp-Npg-B5-Asp-Asp-Ala-Ala-Phe-Ser-PyrS2-Phe-BztA-Ser-NH2) [I-1356]
19.5	[αAllylPro]D[tBuAla][B5(4)]DDAAFN[PyrS2″][Ala(cPent)][Bta]Q-NH2 (staple 1-4, 4-11) [I-1352]
8.8	[αAllylPro]D[tBuAla][B5(4)]DDAAFL[PyrS2″][Ala(cPent)][Bta]Q-NH2 (staple 1-4, 4-11) [I-1353]
